According to patent US20130096058A1:

Target: Murine CD40L on the Th2 cell line D10.G4.1 (mouse) (UniProt P27548)
Test: cell-based or functional assay

Murine CD40L on the Th2 cell line D10.G4.1 (mouse), sequence (P27548 whole entry): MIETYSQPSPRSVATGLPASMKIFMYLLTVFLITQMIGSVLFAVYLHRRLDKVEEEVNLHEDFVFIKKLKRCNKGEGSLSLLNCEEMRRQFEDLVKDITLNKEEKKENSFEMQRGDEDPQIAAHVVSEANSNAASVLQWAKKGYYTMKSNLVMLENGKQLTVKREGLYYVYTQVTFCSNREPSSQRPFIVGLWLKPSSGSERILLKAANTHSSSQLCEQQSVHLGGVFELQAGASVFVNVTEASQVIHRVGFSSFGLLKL

IC50 of inhibition of MuCD40L-induced CD86 expression on B cells: 100 µM
Substance: MR1 antibody
